Data set [1] concerns the molecule itself. Description: SEC-MALS; multiangle laser light scattering instrument (Wyatt) coupled to an HPLC system, called dynamic light scattering (MALS) by the paper; samples in 50 mM sodium phosphate pH 7.8, filtered through 0.22 um; 18 angles; absolute molar mass of each protein alone. In general terms: SEC sorts molecules by how far they enter the pores of the column.

Data set [2] concerns the molecule itself. The experiment in a line: SDS-PAGE with western blot (anti-His tag antibody); purified His-tagged WT αB on an SDS-PAGE gel; 50 kDa band beside the monomer, both immunoreactive with the anti-His antibody.

From paper PMC3172050, “Structural and functional properties of NH2-terminal domain, core domain, and COOH-terminal extension of αA- and αB-crystallins” (Molecular Vision, 2011) come the findings set out here.

In general, stoichiometry N refers to the number of molecules, sites or subunits per partner or assembly.

B1: αB-crystallin core domain (residues 67-146) (domain or fragment, human, UniProt P02511 67-146, looked up)
chain: EMRLEKDRFSVNLDVKHFSPEELKVKVLGDVIEVHGKHEERQDEHGFISREFHRKYRIPADVDPLTITSSLSSDGVLTVN
notes: human αB-crystallin, core domain, residues 67-146; The pET 100D TOPO vector may add further N-terminal residues besides the His-tag; also called αB CD; not shown: His6, N-terminal, kept
B1: in data set [1], the binding result is given as “binds”.

B2: wild type αB-crystallin (natural protein, human, UniProt P02511 1-175, looked up)
chain: MDIAIHHPWIRRPFFPFHSPSRLFDQFFGEHLLESDLFPTSTSLSPFYLRPPSFLRAPSWFDTGLSEMRLEKDRFSVNLDVKHFSPEELKVKVLGDVIEVHGKHEERQDEHGFISREFHRKYRIPADVDPLTITSSLSSDGVLTVNGPRKQVSGPERTIPITREEKPAVTAAPKK
notes: human αB-crystallin, wild type; Subcloned into pET 100D TOPO; the vector may add further N-terminal residues besides the His-tag; also called WT αB; not shown: His6, N-terminal, kept
With B2, in data set [2], the “stoichiometry N” value worked out at 2.

B3: αB-crystallin NH2-terminal domain (residues 1-66) (domain or fragment, human, UniProt P02511 1-66, looked up)
chain: MDIAIHHPWIRRPFFPFHSPSRLFDQFFGEHLLESDLFPTSTSLSPFYLRPPSFLRAPSWFDTGLS
notes: human αB-crystallin, NH2-terminal domain, residues 1-66; The pET 100D TOPO vector may add further N-terminal residues besides the His-tag; also called αB NTD; not shown: His6, N-terminal, kept
As to B3, the binding result in data set [1] was “binds”.
